Where “and” joins values, the source holds several entries; their conditions need not be identical. Equal values may be shown once.
Assays:
[1] = biological target: FcγRIIIa (from Sino Biological, also known as CD16a) (UniProt P08637); test: BLI (Fortebio), FcγRIIIa on SA sensor, antibody 31.3-500 nM, 30 C, 1:1 fit
[2] = biological target: human NT5E-Biotin (for NT5E, GenbankID: NP_002517.1, position: 1-552) (human) (UniProt P21589); test: ELISA, NT5E-Biotin on streptavidin plate; antibody 0.333 ug/mL diluted 1:27
[3] = biological target: human NT5E-Biotin (for NT5E, GenbankID: NP_002517.1, position: 1-552) (human) (UniProt P21589); test: ELISA, NT5E-Biotin on streptavidin plate; antibody 0.333 ug/mL diluted 1:729
[4] = biological target: human NT5E-Biotin (for NT5E, GenbankID: NP_002517.1, position: 1-552) (human) (UniProt P21589); test: ELISA, NT5E-Biotin on streptavidin plate; antibody 0.333 ug/mL diluted 1:243
[5] = biological target: CD73 endogenously expressed on the cell surface (MDA-MB-231 cells; U87-MG cells) (UniProt P21589); test: flow cytometry on MDA-MB-231 cells; antibody 0.14 nM
[6] = biological target: human NT5E-Biotin (for NT5E, GenbankID: NP_002517.1, position: 1-552) (human) (UniProt P21589); test: ELISA, NT5E-Biotin on streptavidin plate; antibody 0.333 ug/mL diluted 1:9
[7] = biological target: human NT5E-Biotin (for NT5E, GenbankID: NP_002517.1, position: 1-552) (human) (UniProt P21589); test: ELISA, NT5E-Biotin on streptavidin plate; antibody 0.333 ug/mL diluted 1:81
[8] = biological target: CD73 endogenously expressed on the cell surface (MDA-MB-231 cells; U87-MG cells) (UniProt P21589); test: flow cytometry on MDA-MB-231 cells; antibody 0.41 nM
[9] = biological target: CD73 endogenously expressed on the cell surface (MDA-MB-231 cells; U87-MG cells) (UniProt P21589); test: flow cytometry on MDA-MB-231 cells
[10] = biological target: human NT5E-Biotin (for NT5E, GenbankID: NP_002517.1, position: 1-552) (human) (UniProt P21589); test: ELISA, NT5E-Biotin on streptavidin plate
[11] = biological target: human NT5E-Biotin (for NT5E, GenbankID: NP_002517.1, position: 1-552) (human) (UniProt P21589); test: ELISA, NT5E-Biotin on streptavidin plate; antibody 0.333 ug/mL
[12] = biological target: human NT5E(1-552)-his (human) (UniProt P21589); test: BLI (Fortebio), antibody on Protein A sensor, antigen 3.125-200 nM, 37 C, 1:1 fit
[13] = biological target: human NT5E-Biotin (for NT5E, GenbankID: NP_002517.1, position: 1-552) (human) (UniProt P21589); test: ELISA, NT5E-Biotin on streptavidin plate; antibody 0.333 ug/mL diluted 1:3

Sequence of FcγRIIIa (from Sino Biological, also known as CD16a) (P08637 17-208 limits assumed): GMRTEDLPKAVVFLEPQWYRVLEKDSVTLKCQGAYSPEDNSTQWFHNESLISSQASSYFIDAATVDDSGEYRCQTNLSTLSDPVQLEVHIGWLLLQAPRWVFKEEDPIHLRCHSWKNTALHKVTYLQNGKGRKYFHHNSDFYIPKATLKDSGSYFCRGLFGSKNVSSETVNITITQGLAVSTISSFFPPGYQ
Sequence of CD73 endogenously expressed on the cell surface (MDA-MB-231 cells; U87-MG cells) (P21589 27-549 limits assumed): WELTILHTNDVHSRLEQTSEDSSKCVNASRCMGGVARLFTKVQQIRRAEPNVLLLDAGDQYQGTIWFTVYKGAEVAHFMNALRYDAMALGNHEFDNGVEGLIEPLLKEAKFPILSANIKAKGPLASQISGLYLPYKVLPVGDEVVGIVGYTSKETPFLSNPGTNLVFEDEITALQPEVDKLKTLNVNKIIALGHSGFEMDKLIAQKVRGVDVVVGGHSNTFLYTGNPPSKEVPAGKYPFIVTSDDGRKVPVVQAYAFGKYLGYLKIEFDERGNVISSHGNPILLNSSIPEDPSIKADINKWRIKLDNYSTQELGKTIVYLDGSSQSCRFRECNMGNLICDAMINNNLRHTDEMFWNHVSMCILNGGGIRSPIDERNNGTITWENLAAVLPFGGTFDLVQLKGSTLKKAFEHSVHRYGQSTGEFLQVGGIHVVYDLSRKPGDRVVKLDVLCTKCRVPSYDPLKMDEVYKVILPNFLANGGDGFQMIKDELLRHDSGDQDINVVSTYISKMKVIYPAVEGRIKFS
Sequence of human NT5E-Biotin (for NT5E, GenbankID: NP_002517.1, position: 1-552) (human) (P21589 27-552 limits assumed, form in doubt): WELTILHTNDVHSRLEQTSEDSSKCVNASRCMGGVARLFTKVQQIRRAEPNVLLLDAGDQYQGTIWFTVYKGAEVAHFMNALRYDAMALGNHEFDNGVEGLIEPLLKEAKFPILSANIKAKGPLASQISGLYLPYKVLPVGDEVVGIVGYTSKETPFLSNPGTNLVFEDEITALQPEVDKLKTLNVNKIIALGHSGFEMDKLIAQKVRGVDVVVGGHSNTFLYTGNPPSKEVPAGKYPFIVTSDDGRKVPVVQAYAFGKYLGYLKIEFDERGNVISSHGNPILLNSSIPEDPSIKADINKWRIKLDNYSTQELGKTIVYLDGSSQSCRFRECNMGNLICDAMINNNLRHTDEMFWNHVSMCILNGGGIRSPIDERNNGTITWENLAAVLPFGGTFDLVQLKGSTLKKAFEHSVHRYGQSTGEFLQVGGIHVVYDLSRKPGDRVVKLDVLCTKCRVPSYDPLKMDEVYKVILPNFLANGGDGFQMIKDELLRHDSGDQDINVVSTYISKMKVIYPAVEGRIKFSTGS
Sequence of human NT5E(1-552)-his (human) (P21589 27-552 limits assumed, form in doubt): as above

Substance	Kd [1] [nM]	koff [1] [s⁻¹]	kon [1] [M⁻¹ s⁻¹]	OD (450 nm) [2]	OD (450 nm) [3]	OD (450 nm) [4]	FACS fluorescence signal (read-out not given) [5]	OD (450 nm) [6]	OD (450 nm) [7]	FACS fluorescence signal (read-out not given) [8]	EC50 [9] [nM]	EC50 [10] [nM]	OD (450 nm) [11]	Kd [12] [nM]	S E (kon) [12] [M⁻¹ s⁻¹]	S E(kdis) [12] [s⁻¹]	koff [12] [s⁻¹]	kon [12] [M⁻¹ s⁻¹]	OD (450 nm) [13]
Wild-type IgG1 antibody	125	0.022	176000	–	–	–	–	–	–	–	–	–	–	–	–	–	–	–	–
positive control antibody MEDI9447 (oleclumab)	141	0.0342	243000	1.77 and 1.74	0.272 and 0.275	0.536 and 0.528	43.2	2.27 and 2.28	1.06 and 1.03	91	1.43	0.048	2.55 and 2.53	0.104	3200	5.02e-06	2.44e-05	234000	2.57 and 2.6

Source: patent publication EP4790071A2
